Molecular target: biotin-labeled HNRNPA1 peptide carrying R194 symmetric dimethylation (SDMA)
Experiment: BLI; Octet-RED96; biotinylated R194 SDMA HNRNPA1 peptide immobilised on streptavidin biosensors at 10 µg/mL; ZMYND11-MYND serially diluted three-fold from 333 nM in PBST; 300 s association, 300 s dissociation; 1:1 binding model

His-tagged recombinant MYND domain of ZMYND11 (domain or fragment)
Kd: 3.5 nM

— paper PMC11438962
